Tested on: Nc1ncnc2c1ncn2[C@@H]1O[C@H](CO[P@](=O)(O)O[C@@H]2[C@H](O)[C@@H](CO[P@](=O)(O)O[C@@H]3[C@H](O)[C@@H](CO[P@](=O)(O)O[P@@](=O)(O)OP(=O)(O)O)O[C@H]3n3cnc4c(N)ncnc43)O[C@H]2n2cnc3c(N)ncnc32)[C@@H](O)[C@H]1O
Assay: purified protein
Details: pH 7.2; 30.0 °C

For “MERS-CoV NS4b (Human betacoronavirus 2c EMC/2012)”, the Km was 2.6 ± 0.6 µM and the kcat/Km was 800000 M⁻¹ s⁻¹.
“HKU5 NS4b (Pipistrellus bat coronavirus HKU5)” showed a Km of 1.3 ± 0.3 µM and a kcat/Km of 1.4e+06 M⁻¹ s⁻¹.
With “MHV NS2 (Murine hepatitis virus strain A59)” the Km was 6.7 ± 1.6 µM.
With SC2013 NS4b (BtVs-BetaCoV/SC2013) the Km was 2.9 ± 0.6 µM and the kcat/Km was 800000 M⁻¹ s⁻¹.
